Data as given in PMC8099429, “Membrane binding controls ordered self-assembly of animal septins” (eLife, 2021).
Each block holds one molecule with its values, some of them ahead of it.

What was measured:
[1] = molecular target: Drosophila melanogaster septin hexamers composed of His6-DSep1, DSep2, Pnut-StrepII (Drosophila melanogaster) (UniProt P42207); experiment: atomic force microscopy on supported lipid bilayers; 12, 24 or 60 nM hexamers for 15 min at 19°C on silica-supported bilayers of 80% PC and 20% PS in polymerization buffer; mostly fixed with 1% glutaraldehyde, also unfixed
[2] = molecular target: Drosophila melanogaster septin hexamers composed of His6-DSep1, mEGFP-DSep2, and Pnut-StrepII (Drosophila melanogaster) (UniProt P42207); experiment: TIRF microscopy of bundles formed in solution; mEGFP-tagged hexamers diluted from 300 mM KCl into polymerization buffer with 50 mM KCl (20 mM imidazole pH 7.4), 100, 200, 500 nM; crowded onto a neutral PC bilayer with 0.1 wt-% methylcellulose; 20°C
[3] = molecular target: the molecule itself; experiment: scanning transmission electron microscopy (STEM) with mass-per-length mapping; septins preassembled for 1 hr at 20°C in solution at 50-500 nM, no membrane; TMV rods as mass standard

- threshold concentration for polymerization on negatively charged membranes [1]: < 12 nM
Molecule: Drosophila melanogaster septin hexamers composed of His6-DSep1, DSep2, Pnut-StrepII (from UniProt P42207 1-361; P54359 1-419; P40797 1-539) (complex)

- threshold concentration for polymerization in solution [2]: 200 nM
Molecule: Drosophila melanogaster septin hexamers composed of His6-DSep1, mEGFP-DSep2, and Pnut-StrepII (from UniProt P42207 1-361; P54359 1-419; P40797 1-539) (complex)

B1: Budding yeast septin octamers composed of Cdc3, Cdc10, Cdc11, and His6-Cdc12 (complex, budding yeast (S. cerevisiae))
chain 1: MSLKEEQVSIKQDPEQEERQHDQFNDVQIKQESQDHDGVDSQYTNGTQNDDSERFEAAESDVKVEPGLGMGITSSQSEKGQVLPDQPEIKFIRRQINGYVGFANLPKQWHRRSIKNGFSFNLLCVGPDGIGKTTLMKTLFNNDDIEANLVKDYEEELANDQEEEEGQGEGHENQSQEQRHKVKIKSYESVIEENGVKLNLNVIDTEGFGDFLNNDQKSWDPIIKEIDSRFDQYLDAENKINRHSINDKRIHACLYFIEPTGHYLKPLDLKFMQSVYEKCNLIPVIAKSDILTDEEILSFKKTIMNQLIQSNIELFKPPIYSNDDAENSHLSERLFSSLPYAVIGSNDIVENYSGNQVRGRSYPWGVIEVDNDNHSDFNLLKNLLIKQFMEELKERTSKILYENYRSSKLAKLGIKQDNSVFKEFDPISKQQEEKTLHEAKLAKLEIEMKTVFQQKVSEKEKKLQKSETELFARHKEMKEKLTKQLKALEDKKKQLELSINSASPNVNHSPVPTKKKGFLR
chain 2: MDPLSSVQPASYVGFDTITNQIEHRLLKKGFQFNIMVVGQSGLGKSTLINTLFASHLIDSATGDDISALPVTKTTEMKISTHTLVEDRVRLNINVIDTPGFGDFIDNSKAWEPIVKYIKEQHSQYLRKELTAQRERFITDTRVHAILYFLQPNGKELSRLDVEALKRLTEIANVIPVIGKSDTLTLDERTEFRELIQNEFEKYNFKIYPYDSEELTDEELELNRSVRSIIPFAVVGSENEIEINGETFRGRKTRWSAINVEDINQCDFVYLREFLIRTHLQDLIETTSYIHYEGFRARQLIALKENANSRSSAHMSSNAIQR
chain 3: MSGIIDASSALRKRKHLKRGITFTVMIVGQSGSGRSTFINTLCGQQVVDTSTTILLPTDTSTEIDLQLREETVELEDDEGVKIQLNIIDTPGFGDSLDNSPSFEIISDYIRHQYDEILLEESRVRRNPRFKDGRVHCCLYLINPTGHGLKEIDVEFIRQLGSLVNIIPVISKSDSLTRDELKLNKKLIMEDIDRWNLPIYNFPFDEDEISDEDYETNMYLRTLLPFAIIGSNEVYEMGGDVGTIRGRKYPWGILDVEDSSISDFVILRNALLISHLHDLKNYTHEILYERYRTEALSGESVAAESIRPNLTKLNGSSSSSTTTRRNTNPFKQSNNINNDVLNPASDMHGQSTGENNETYMTREEQIRLEEERLKAFEERVQQELLLKRQELLQREKELREIEARLEKEAKIKQEE
chain 4: MSAATATAAPVPPPVGISNLPNQRYKIVNEEGGTFTVMLCGESGLGKTTFINTLFQTVLKRADGQQHRQEPIRKTVEIDITRALLEEKHFELRVNVIDTPGFGDNVNNNKAWQPLVDFIDDQHDSYMRQEQQPYRTKKFDLRVHAVLYFIRPTGHGLKPIDIETMKRLSTRANLIPVIAKADTLTAQELQQFKSRIRQVIEAQEIRIFTPPLDADSKEDAKSGSNPDSAAVEHARQLIEAMPFAIVGSEKKFDNGQGTQVVARKYPWGLVEIENDSHCDFRKLRALLLRTYLLDLISTTQEMHYETYRRLRLEGHENTGEGNEDFTLPAIAPARKLSHNPRYKEEENALKKYFTDQVKAEEQRFRQWEQNIVNERIRLNGDLEEIQGKVKKLEEQVKSLQVKKSHLK
notes: Cdc3, budding yeast septin; Cdc10, budding yeast septin; Cdc11, budding yeast septin; Cdc12, budding yeast septin; Two copies of each chain follow from the word octamer with four named subunits; also called yeast septins; budding yeast septins; source: purified as described (Bertin et al., 2008); copies: 2 + 2 + 2 + 2
- binding result [3]: binds
